Results on 6 molecules are retold here after patent US20230322924A1 (Janssen / Centocor, published 2023).

Usually koff stands for a measure of how fast the partners let go of each other. A word on the Kd: it is the free concentration of one partner at which half of the binding sites on the other are occupied at equilibrium, for simple one-to-one binding. A high value points to a looser complex. As a reminder, the kon is the second-order rate constant of association.

Assay [1] addresses T1, Cyno CD33 full length, expressed on HEK293F cells (cynomolgus monkey).
T1 construct: HEK293F cells transduced with lentivirus containing full length cyno CD33 (Genbank XP_005590138.1); also called cyCD33
Nature of the assay: flow cytometry, HEK293F cells expressing cyno CD33. The protocol: (§1) OMNIRat antibodies identified via immunization, v-region cloned and subsequently expressed and purified were characterized further for binding to CD33 expressing cells and binding to recombinant antigens. The purified antibodies were assessed for binding to stably transfected HEK293F cells expressing human CD33 or cyno CD33 (generation described above) along with the parental HEK293F as negative control. Cells were harvested from tissue culture flasks using non-enzymatic dissociation buffer (Thermo Scientific). The flasks were rinsed twice with PBS and dissociation buffer was added to the flask, and the flask was incubated for 10 minutes at 37° C. until the cells became non-adherent. The cells were centrifuged at 300 g for 5 minutes and resuspended at 1.0×10⁶ cells/ml in staining buffer (Becton Dickinson; Franklin Lakes, NJ). 50,000 cells/well of each cell type was plated in 50 μl of staining buffer in round bottom plates (Becton Dickinson). […] 100 μl staining buffer was added to all wells of each plate, the plates were spun at 300 g for 5 min, the buffer was removed, 200 μl staining buffer was added to all wells of each plate, the plates were spun at 300 g for 5 min, and the buffer was removed. 50 μl of 2 μg/ml of Goat-anti-human Fc AF647 secondary antibody (Jackson Immunoresearch; West Grove, PA) was added to all wells of the plates, and the plates were incubated for 30 min at 4° C. 100 μl staining buffer was added to all wells of the plates, the plates were spun at 300 g for 5 min, and the buffer was removed. 200 μl running buffer (running buffer is Staining buffer, 1 mM EDTA, 0.1% Pluronic Acid) was added to all wells of the plates, the plates were spun at 300 g for 5 min, and the buffer was removed. 30 μl running buffer containing Sytox Green live/dead dye (ThermoFisher) was added to all wells with cells and the plates were read on an iQue IntelliCyt flow cytometer. Cells were gated on forward vs. side scatter to eliminate debris, then on singlets and then on live cells which excluded the Sytox stain. Antibody binding was assessed by the mean fluorescence intensity in the AF647 channel.
Background: In flow cytometry, cells or beads pass a laser one at a time.

In assay [2] the target is T2, Human CD33 full length, expressed on HEK293F cells (human, UniProt P20138 18-364).
T2 construct: HEK293F cells transduced with lentivirus containing full length human CD33; also called huCD33
T2 sequence (P20138 18-364 limits assumed): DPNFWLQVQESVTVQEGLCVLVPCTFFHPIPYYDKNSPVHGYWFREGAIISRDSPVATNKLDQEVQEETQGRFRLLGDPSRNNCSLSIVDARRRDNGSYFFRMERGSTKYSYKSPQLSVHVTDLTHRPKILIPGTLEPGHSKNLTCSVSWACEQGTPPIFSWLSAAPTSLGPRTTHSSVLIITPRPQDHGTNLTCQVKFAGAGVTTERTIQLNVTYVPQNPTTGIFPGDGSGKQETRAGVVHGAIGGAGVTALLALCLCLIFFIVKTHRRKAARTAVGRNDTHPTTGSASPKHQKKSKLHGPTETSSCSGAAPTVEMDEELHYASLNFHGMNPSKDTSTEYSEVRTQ
Nature of the assay: flow cytometry, HEK293F cells expressing human CD33. The protocol:
as §1

Assay [3] concerns the target Human CD33 ECD-HSA (human). Put plainly: SPRi off-rate screen (IBIS MX96), mAb captured by anti-human Fc; column head prints KD. Here is the method: (§2) To begin assessing the biophysical binding properties of the purified mAbs an off-rate screen was performed. 76 OMNIRat anti-CD33 mAbs were tested for binding to recombinant human CD33 ECD-HSA (C33W2) and cyno CD33 ECD-HSA (C33W1) proteins (Janssen production) and the off-rate was measured by IBIS MX96 SPRi array platform (Carterra; Newton, PA). […] The sensor chip was transferred to the Continuous Flow Microspotter (CFM) unit to capture each anti-CD33 mAb at 10 μg/ml for 10 minutes. Binding was measured on IBIS SPRi by single cycle kinetics without regeneration. […] The raw binding data (.trix file format) were referenced and aligned using SprintX software (Wasatch, Ver 1.9.3.2), then exported (.ibmx file format) to Scrubber software (Ver. 2.0) for 1:1 binding kinetic analyses (Wasatch, version 2.0.0.33) to extract the koff results.

In assay [4] the target is T3, Cyno CD33 ECD-HSA (cynomolgus monkey).
T3 construct: Cyno CD33 extracellular domain fused to monomeric human serum albumin and a six-histidine tag; also called C33W1
Nature of the assay: SPRi off-rate screen (IBIS MX96), mAb captured by anti-human Fc; column head prints Cyno CD33 binding KD. Here is the method:
as §2

The target in assay [5] is T3, Cyno CD33 ECD-HSA. Nature of the assay: ProteOn SPR, mAb captured by anti-human Fc, 1:1 Langmuir fit. Here is the method:
The panel of mAbs was then further characterized for full affinity analysis as well as epitope binning. The binding of anti-CD33 mAbs to recombinant human CD33 ECD-HSA (C33W2) and cyno CD33 ECD-HSA (C33W1) was measured by ProteOn SPR (Bio-Rad). […] Different mAbs were captured on the anti-human Fc IgG surface at 0.25 or 0.5 μg/ml (160-300 RU) in vertical ligand orientation, with the 6th ligand channel as no ligand surface control. Human and cyno CD33-HSA proteins at 0.3 μM concentration in 3-fold dilution series of 5 concentrations flew in as analyte to bind to captured mAbs in the horizontal orientation. A buffer sample was also injected in the 6th channel to monitor the dissociation of captured mAb and baseline stability. […] The raw biding data were processed by double referencing after subtracting the response data from: 1) the inter-spot to correct for the non-specific interactions between the Ag and the empty chip surface; 2) the buffer channel to correct for baseline drifting due to the dissociation of captured mAb surface over time. The processed data at all antigen concentrations for each mAb were globally fit to a 1:1 simple Langmuir binding model to extract estimates of the kinetic (kₒₙ, koff) and affinity (Kd) constants.

Assay [6] concerns the target T4, Cyno CD33 full length (cynomolgus monkey).
T4 construct: also called cyCD33
Put plainly: flow cytometry on HEK293F cells expressing cyno CD33. The protocol:
as §1, with “The” for “OMNIRat antibodies identified via immunization, v-region cloned and subsequently expressed and purified were characterized further for binding to CD33 expressing cells and binding to recombinant antigens. The”
(§3) The OmniMouse panel (8 mAbs total) was generated separately and characterized further for binding to cells.

The target of assay [7] is T5, Human CD33 full length (human, UniProt P20138 18-364).
T5 construct: also called huCD33
T5 sequence (P20138 18-364 limits assumed): as above
Nature of the assay: flow cytometry on HEK293F cells expressing human CD33. Here is the method:
as §1, with “The” for “OMNIRat antibodies identified via immunization, v-region cloned and subsequently expressed and purified were characterized further for binding to CD33 expressing cells and binding to recombinant antigens. The”
as §3

Human CD33 ECD-HSA (human), sequence (chain, as listed by the source): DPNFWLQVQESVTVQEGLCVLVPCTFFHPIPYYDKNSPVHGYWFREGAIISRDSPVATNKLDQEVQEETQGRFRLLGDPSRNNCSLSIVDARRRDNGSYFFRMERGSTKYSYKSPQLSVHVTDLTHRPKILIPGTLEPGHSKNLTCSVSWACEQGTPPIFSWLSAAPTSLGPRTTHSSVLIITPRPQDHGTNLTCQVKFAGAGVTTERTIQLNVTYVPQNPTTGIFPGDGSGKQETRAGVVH

B1: C33B88 (antibody, IgG1, V domains shown)
VH: QVQLVQSGSELKKPGASVKVSCKASGYTLTRSAMNWVRQAPGQGLEWMGWINTNTGNPTYAQGFTGRFVFSLDTSVNTAYLLISSLKTEDTAVYYCASDILPGYHEDYWGQGTLVTVSS
VL: QSALTQPASVSGSPGQSITISCTGINSDVGSYDLVSWYQQHPGKAPKLLIYDGSERPSGVFGRFSGSKSDNTTSLTISGLQAEDEAAYYCCSYEVTTTYVVFGGGTKLTVL
notes: huIgG1 F405L; also called C33F93; C33H88/C33L61
For B1, in assay [1], the “MFI at 0 nM mAb (background)” value is 90.1 MFI, the “MFI at 0.6 nM mAb” value is 43900 MFI, the “MFI at 6 nM mAb” value came to 43900 MFI and the “MFI at 60 nM mAb” value is 50400 MFI. Further, in assay [2], the “MFI at 0 nM mAb (background)” value was determined as 94.8 MFI, the “MFI at 0.6 nM mAb” value came out at 274000 MFI, the “MFI at 6 nM mAb” value stood at 481000 MFI and the “MFI at 60 nM mAb” value is 393000 MFI. The molecule further had a koff in assay [3] of 0.000825 s⁻¹. This molecule gave a koff in assay [4] of 0.000389 s⁻¹.

B2: C33B107 (antibody, IgG1, V domains shown)
VH: EVQLLESGGGLVQPGGSLGLSCAASGFTFSGYAMSWVRQAPGKGLNWVSAIDYSGNDTYYADSVKGRFTISRDNSKNTLYLQMNSLRAEDTAVYYCAKESQLLHGLFEHWGQGILVTVSS
VL: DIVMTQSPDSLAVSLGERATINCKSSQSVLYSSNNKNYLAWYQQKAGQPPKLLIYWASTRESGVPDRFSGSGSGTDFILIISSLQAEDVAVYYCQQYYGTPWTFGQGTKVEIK
notes: huIgG1 F405L; also called C33F112; C33H68/C33L17
Turning to B2, in assay [1], the “MFI at 0 nM mAb (background)” value was 55.1 MFI, the “MFI at 0.6 nM mAb” value was determined as 36800 MFI, the “MFI at 6 nM mAb” value was 47800 MFI and the “MFI at 60 nM mAb” value came to 50300 MFI. In addition, in assay [2], the “MFI at 0 nM mAb (background)” value worked out at 86.5 MFI, the “MFI at 0.6 nM mAb” value came out at 161000 MFI, the “MFI at 6 nM mAb” value was determined as 340000 MFI and the “MFI at 60 nM mAb” value came to 375000 MFI. In assay [5], this molecule gave a dissociation constant (Kd) of 0.212 nM, an off-rate constant (koff) of 7.01e-05 s⁻¹ and a kon of 331000 M⁻¹ s⁻¹. In addition, the koff in assay [3] was 0.00444 s⁻¹. For the same molecule, the koff in assay [4] came out at 0.000135 s⁻¹.

B3: C33B909 (antibody, V domains shown)
VH: EVQLVESGGGLVQPGRSLRLSCVASGFTFDDYAIHWVRQAPGKGLEWVSGLSWNGGNIGYADSVKGRFTISRDNAKNSLYLQMNSLKTEDTAFYYCTKDTPYGDYFDYWGQGTLVTVSS
VL: DIQMTQSPSSVWASVGDRVTITCRASQGISSWLAWYQQQPGKAPNLLIYRSSSLQSGVPSRFSGSGSGTDFTLTISSLQPEDFATYYCQQDNSFPYTFGQGTKLEIK
notes: OMNIMouse-derived anti-CD33 mAb; same V regions as C33B901; The OMNIMouse mAbs were cloned into both IgG1 and IgG4 PAA; also called C33H249/C33L115
With B3, in assay [6], the “MFI at 0 nM (background)” value was determined as 124 MFI, the “MFI at 0.6 nM” value turned out to be 116 MFI, the “MFI at 6 nM” value amounted to 135 MFI and the “MFI at 60 nM” value stood at 180 MFI. Also, in assay [7], the “MFI at 0 nM (background)” value is 191 MFI, the “MFI at 0.6 nM” value came out at 154 MFI, the “MFI at 6 nM” value stood at 170 MFI and the “MFI at 60 nM” value turned out to be 176 MFI.

B4: C33B910 (antibody, V domains shown)
VH: EVQLVESGGGLVQPGRSLRLSCAGSGFTFDDYAIHWVRQAPGKGLEWVSGLSWNGGNIGYADSVKGRFTISRDNAKNSLYLQLNSLKTEDTAFYYCAKDSPYGDYFDYWGQGTLVTVSS
VL: DIQMTQSPSSEWASVGDRVTITCRASQGISSWLAWYQQKPGKAPKLLIYGASSWQSGVPSRFSGSGSGTDFTLTISSLQPEDFATYYCQQDNSFPYTFGQGTKLEIK
notes: OMNIMouse-derived anti-CD33 mAb; same V regions as C33B902; also called C33H250/C33L116
Turning to B4, in assay [6], the “MFI at 0 nM (background)” value amounted to 176 MFI, the “MFI at 0.6 nM” value was 117 MFI, the “MFI at 6 nM” value amounted to 135 MFI and the “MFI at 60 nM” value came out at 202 MFI. For the same molecule, in assay [7], the “MFI at 0 nM (background)” value came out at 155 MFI, the “MFI at 0.6 nM” value was found to be 151 MFI, the “MFI at 6 nM” value was 183 MFI and the “MFI at 60 nM” value is 214 MFI.

B5: C33B54 (antibody, IgG1, V domains shown)
VH: QVQLQQSGPGLVKPSQTLSLTCAISGDSVSSNSAAWNWIRQSPSRGLEWLGRTYYRSKWYNDYAVSVRSRITINPDTSKNQFSLQLNSVTPEDTAVYHCARETMFRGLMDYWGQGTLVTVSS
VL: SYVLTQPPSVSVAPGQTARITCGGSNIGSKSVHWYQQKPGQAPVMVVYDDSDRPSGIPERFSGSNSGNTATLTISRVEAGDEADYYCQVWDSSSDVVFGGGTKLTVL
notes: huIgG1 F405L; also called C33F59; C33H44/C33L10
With B5, in assay [1], the “MFI at 0 nM mAb (background)” value was 28800 MFI, the “MFI at 0.6 nM mAb” value came out at 38100 MFI, the “MFI at 6 nM mAb” value worked out at 43000 MFI and the “MFI at 60 nM mAb” value worked out at 50500 MFI. For the same molecule, in assay [2], the “MFI at 0 nM mAb (background)” value came out at 61.3 MFI, the “MFI at 0.6 nM mAb” value is 3770 MFI, the “MFI at 6 nM mAb” value was 27500 MFI and the “MFI at 60 nM mAb” value is 148000 MFI. Further, in assay [5], the Kd was found to be 0.484 nM, the koff amounted to 0.000637 s⁻¹ and the kon is 1.32e+06 M⁻¹ s⁻¹. Further, the koff in assay [3] amounted to 0.0248 s⁻¹. Further, the koff in assay [4] was 0.000135 s⁻¹.

B6: C33B89 (antibody, IgG1, V domains shown)
VH: QVQLQQSGPGLVKPSQTLSLTCAISGDSVSSNSAAWNWIRQSPSRGLEWLGRTYYRSKWYNDYALSVQSRITINPDTSKNQFSLQLNSVTPEDTAVYYCAREVAVAASFDYWGQGTLVTVSS
VL: SYVLTQPPSVSVAPGQTARITCGGNNIGSKSVHWSQQKPGQAPVLVVYDDSDRPSGIPERFSGSNSGNTATLTISRVEAGDEADYYCQVWDSNSDHVVFGGGTKLTVL
notes: huIgG1 F405L; also called C33F94; C33H90/C33L51
For the molecule B6, in assay [1], the “MFI at 0 nM mAb (background)” value came out at 113 MFI, the “MFI at 0.6 nM mAb” value is 23300 MFI, the “MFI at 6 nM mAb” value was 34200 MFI and the “MFI at 60 nM mAb” value was found to be 47300 MFI. In assay [5], this molecule yielded a Kd of 0.76 nM, a koff of 0.000201 s⁻¹ and an on-rate constant (kon) of 265000 M⁻¹ s⁻¹. The molecule also returned a koff in assay [3] of 0.00811 s⁻¹. The same molecule displayed a koff in assay [4] of 4.65e-05 s⁻¹.
